# Experimental data reported in paper PMC8240387 (2021).
# B1: Mammalian cell-expressed N6 (mN6), broadly neutralising anti-HIV monoclonal antibody N6 expressed in HEK-293T cells (antibody)
# chain 1: RAHLVQSGTAMKKPGASVRVSCQTSGYTFTAHILFWFRQAPGRGLEWVGWIKPQYGAVNFGGGFRDRVTLTRDVYREIAYMDIRGLKPDDTAVYYCARDRSYGDSSWALDAWGQGTTVVVSA
# chain 2: YIHVTQSPSSLSVSIGDRVTINCQTSQGVGSDLHWYQHKPGRAPKLLIHHTSSVEDGVPSRFSGSGFHTSFNLTISDLQADDIATYYCQVLQFFGRGSRLHIK
# modifications: N-glycosylated (size shift on PNGaseF digestion) | N-glycosylated (size shift on PNGaseF digestion)
# B2: Plant-expressed N6 (pN6), broadly neutralising anti-HIV monoclonal antibody N6 expressed in glycoengineered ΔXF N. benthamiana (antibody)
# chain 1: B1 chain 1
# chain 2: B1 chain 2
# modifications: N-glycosylated: GnGn 81.67%, fucosylated 0.69%, no xylosylation, 6.48% non-glycosylated | N-glycosylated: mature complex-type glycans, α(1,3)-fucose 20.93%, no xylosylation, no high mannose …
# Experiments:
# soluble FcγRIIIa = soluble FcγRIIIa (UniProt P08637 17-208); experiment: SPR
# soluble FcγRIIIa, sequence (P08637 17-208): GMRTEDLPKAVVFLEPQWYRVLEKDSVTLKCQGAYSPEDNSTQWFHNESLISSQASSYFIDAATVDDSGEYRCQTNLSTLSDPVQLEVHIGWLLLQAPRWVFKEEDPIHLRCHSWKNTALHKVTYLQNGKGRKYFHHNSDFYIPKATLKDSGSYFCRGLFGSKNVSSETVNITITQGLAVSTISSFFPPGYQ
# [1] = molecular target: recombinant, soluble HIV-1 UG37 gp140 (HIV-1 clade A strain 92UG037); experiment: SPR
Binder,koff (soluble FcγRIIIa) [s⁻¹],koff [1] [s⁻¹]
B1,0.17,0.000189
B2,0.016,0.000115
